Source: patent US20180280525A1 (published 2018)
Numbered stars: 1 amine (or outer) side, 2 acyl side, 3 side chain; on linkers, the order of the positions; unused ones are H or OH. Bridge positions count the residues as written; N and C are the ends. Square brackets hold non-standard residues; d marks the D form. Ends that are not written are not given here. * marks the point of attachment. DOTA = O=C(O)CN1CCN(CC(=O)O)CCN(CC(=O)*)CCN(CC(=O)O)CC1; fluorescein = fluorescein label on the Lys side chain; Phe(4-Br) = N[C@@H](Cc1ccc(Br)cc1)C(=O)O; 1Nal = N[C@@H](Cc1cccc2ccccc12)C(=O)O; TBMB = c1c(C[*:1])cc(C[*:3])cc1C[*:2]; Tle = CC(C)(C)[C@H](N)C(=O)O; Sar = CNCC(=O)O

How the values were obtained:
[1] = molecular target: T1, human MT1-MMP hemopexin domain (human, UniProt P50281 319-511); experiment: FP competition, human MT1-MMP hemopexin domain; method not given
T1 construct: range 319-511; Secreted from HEK293 cells as soluble N-terminally His6-tagged protein; also called MT1-MMP hemopexin-like repeats; MMP14

[2] = molecular target: T2, dog MT1-MMP hemopexin domain (dog, UniProt A0A8I3MND9 318-511); experiment: FP competition, dog MT1-MMP hemopexin domain
T2 construct: domain: hemopexin domain
Protocol: Subsequently, the non-fluorescent competitor bicyclic peptide (usually just the bicycle core sequence) is titrated, such that it displaces the fluorescent tracer from the target protein. The displacement of the tracer is measured and associated with a drop in fluorescence polarisation. The drop in fluorescence polarisation is proportional to the fraction of target protein bound with the non-fluorescent titrant, and thus is a measure of the affinity of titrant to target protein.

[3] = molecular target: T1, human MT1-MMP hemopexin domain; experiment: FP competition, Human/cyno MT1-MMP hemopexin domain
[4] = molecular target: T1, human MT1-MMP hemopexin domain; experiment: FP competition, human MT1-MMP hemopexin domain (n = 3; footnote e)
[5] = molecular target: T1, human MT1-MMP hemopexin domain; experiment: FP competition, human MT1-MMP hemopexin domain; tracer not given
[6] = molecular target: T1, human MT1-MMP hemopexin domain; experiment: FP competition, tracer A-(17-69-07)-A-Sar6-K(Fluorescein)
[7] = molecular target: T1, human MT1-MMP hemopexin domain; experiment: FP competition, tracer A-(17-69-12)-A-Sar6-K(Fluorescein)
[8] = molecular target: T1, human MT1-MMP hemopexin domain; experiment: FP competition, tracer A-(17-69-07)-A-Sar6-K(Fluorescein); remark: listed apart in the source
[9] = molecular target: T1, human MT1-MMP hemopexin domain; experiment: FP direct binding, fluoresceinated peptide titrated with hemopexin domain
[10] = molecular target: T1, human MT1-MMP hemopexin domain; experiment: FP competition, human MT1-MMP hemopexin domain; tracer not given; remark: listed apart in the source
[11] = molecular target: T1, human MT1-MMP hemopexin domain; experiment: as above; remark: listed apart in the source
[12] = molecular target: T1, human MT1-MMP hemopexin domain; experiment: as above; remark: listed apart in the source

B1: 17-69-07-N144 (peptide)
peptide: {DOTA}-ACYNEFGCEDFYDIC
modifications: linker 2-8-15 via TBMB; not fully specified (C-terminus); also: DOTA loaded with 177Lu
notes: Loaded with 177Lu for the biodistribution study; also called DOTA-A-(17-69-07)
B1 was tested. Which Kd [1] did it give?
The Kd was 0.5 nM.

B2: 17-69-07-N147 (peptide)
peptide: {DOTA}-ACYNEFGCEDFYDIC
modifications: linker 2-8-15 via TBMB; not fully specified (C-terminus); also: DOTA loaded with cold 175Lu
notes: also called DOTA[Lu]-A-(17-69-07)
For B2, which Kd [1] is on record?
The Kd was 0.95 nM.

B3: 17-69-07-N248 (peptide)
chain: {DOTA}-AC[dA]NE[1Nal][dA]CEDF[Phe(4-Br)]D[Tle]C
modifications: linker 2-8-15 via TBMB; not fully specified (C-terminus); also: 177Lu chelated in DOTA for biodistribution study
Which Kd [1] does the source give for B3 here?
The Kd was 0.5 nM.

B4: 17-69-07-N219 (peptide)
peptide: GXACYNEFGCEDFYDIC
modifications: not fully specified; Sar x10 in the spacer; 3 Cys cyclised with TBMB
notes: also called G-Sar10-A-(17-69-07) (non-stabilised with spacer)
B4 was tested. Which Kd [2] did it give?
The Kd was 0.9 nM.

What about the Kd [3] of the same binder?
Its Kd is 0.82 nM.

What about the Kd [4] of the same binder?
The Kd was 0.82 nM.

And the Kd [5]?
The Kd was 0.82 nM.

ACVNEFGCEDFYDICA (linker 2-8-15 via TBMB; not fully specified (C-terminus), also called A-(17-69-03)-A) [17-69-03-N001] was tested. Which Kd [6] did it give?
The Kd was 16.7 nM.

Which Kd [7] does the source give for ACYNEFGCEDFYDICA (linker 2-8-15 via TBMB; not fully specified (C-terminus), also called A-(17-69-07)-A) [17-69-07-N001] here?
Its Kd is 1.65 nM.

For ACMNQFGCEDFYDICA (linker 2-8-15 via TBMB; not fully specified (C-terminus), also called A-(17-69-12)-A) [17-69-12-N003], which Kd [8] is on record?
The Kd was 3.7 nM.

B5: 17-69-N004 (peptide)
peptide: ACKNRGFGCEDFYDICA[Sar][Sar][Sar][Sar][Sar][Sar]K(fluorescein)
modifications: linker 2-9-16 via TBMB; not fully specified (C-terminus)
notes: also called A-(17-69)-A-Sar6-K(Fl); A-(17-69)-A-Sar6-K(Fluorescein)
With B5 as the binder, how does the Kd [9] read?
Its Kd is 692 nM.

How did the Kd [6] turn out when ACFGEFGCEDFYDICA (linker 2-8-15 via TBMB; not fully specified (C-terminus), also called A-(17-69-02)-A) [17-69-02-N001] was run?
The Kd was 191 nM.

For Ac-CYNEF[dR]CEDFYDIC (linker 1-7-14 via TBMB; not fully specified (C-terminus)) [17-69-07-N120], which Kd [10] is on record?
The Kd was 4.24 nM.

With Ac-CYNEYGCEDFYDIC (linker 1-7-14 via TBMB; not fully specified (C-terminus), also called Ac-(17-69-07) Tyr4) [17-69-07-N057] as the binder, how does the Kd [11] read?
The Kd was 1.78 nM.

With Ac-CYNEWGCEDFYDIC (linker 1-7-14 via TBMB; not fully specified (C-terminus), also called Ac-(17-69-07) Trp4) [17-69-44-N002] as the binder, how does the Kd [11] read?
Its Kd is 0.75 nM.

B6: 17-69-12-N005 (peptide)
peptide: ACMNQFGCEDFYDICA[Sar][Sar][Sar][Sar][Sar][Sar]K(fluorescein)
modifications: linker 2-8-15 via TBMB; not fully specified (C-terminus)
notes: also called A-(17-69-12)-A-Sar6-K(Fl); A-(17-69-12)-A-Sar6-K(Fluorescein)
Which Kd [9] does the source give for B6 here?
Its Kd is 3.1 nM.

B7: 17-69-07-N040 (peptide)
peptide: ACYNEFGCEDFYDICA[Sar][Sar][Sar][Sar][Sar][Sar]K(fluorescein)
modifications: linker 2-8-15 via TBMB; not fully specified (C-terminus)
notes: also called A-(17-69-07)-A-Sar6-K(Fl); A-(17-69-07)-A-Sar6-K(Fluorescein)
For B7, which Kd [9] is on record?
The Kd was 0.52 nM.

B8: 17-69-07-N252 (peptide)
chain: Ac-C[dA]NE[1Nal][dA]CEDF[Phe(4-Br)]D[Tle]C
modifications: linker 1-7-14 via TBMB; not fully specified (C-terminus); printed as Ac-(17-69-07) D-Ala1 1Nal4 D-Ala5 4BrPhe9 tBuGly11
B8 was tested. Which Kd [12] did it give?
Its Kd is 0.8 nM.
